The record followed here is paper PMC3087838 (Nature structural & molecular biology, 2011).

Like-named read-outs stand apart in the source and are kept apart here.

B1: Full length WT His-hVDR (human vitamin D receptor) (receptor, UniProt P11473 1-427, looked up)
chain: MEAMAASTSLPDPGDFDRNVPRICGVCGDRATGFHFNAMTCEGCKGFFRRSMKRKALFTCPFNGDCRITKDNRRHCQACRLKRCVDIGMMKEFILTDEEVQRKREMILKRKEEEALKDSLRPKLSEEQQRIIAILLDAHHKTYDPTYSDFCQFRPPVRVNDGGGSHPSRPNSRHTPSFSGDSSSSCSDHCITSSDMMDSSSFSNLDLSEEDSDDPSVTLELSQLSMLPHLADLVSYSIQKVIGFAKMIPGFRDLTSEDQIVLLKSSAIEVIMLRSNESFTMDDMSWTCGNQDYKYRVSDVTKAGHSLELIEPLIKFQVGLKKLNLHEEEHVLLMAICIVSPDRPGVQDAALIEAIQDRLSNTLQTYIRCRHPPPGSHLLYAKMIQKLADLRSLNEEHSKQYRCLSFQPECSMKLTPLVLEVFGNEIS

Test in all cases: HDX-MS
The target in experiment [1] is T1, Full length WT Flag-hRXRα (human retinoid X receptor alpha) (human, UniProt P19793 1-462).
T1 sequence (looked up): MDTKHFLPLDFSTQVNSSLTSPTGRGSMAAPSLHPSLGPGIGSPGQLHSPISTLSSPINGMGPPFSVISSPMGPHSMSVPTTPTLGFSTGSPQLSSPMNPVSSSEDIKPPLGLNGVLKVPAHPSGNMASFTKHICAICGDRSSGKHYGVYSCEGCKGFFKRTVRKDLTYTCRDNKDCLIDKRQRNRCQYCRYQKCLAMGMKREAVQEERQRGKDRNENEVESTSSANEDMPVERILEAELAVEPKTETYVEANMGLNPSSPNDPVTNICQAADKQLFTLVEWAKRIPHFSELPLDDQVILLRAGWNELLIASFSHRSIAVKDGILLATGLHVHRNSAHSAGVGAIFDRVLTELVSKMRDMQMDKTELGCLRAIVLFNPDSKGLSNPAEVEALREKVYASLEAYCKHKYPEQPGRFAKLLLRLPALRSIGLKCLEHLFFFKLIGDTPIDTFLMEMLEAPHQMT

Experiment [2] concerns the target B1.
The target of experiment [3] is T2, RXRα-VDR heterodimer complex (full length His-hVDR with full length Flag-hRXRα) (human, UniProt P11473 1-427; P19793 1-462).
T2 sequence (looked up) 1: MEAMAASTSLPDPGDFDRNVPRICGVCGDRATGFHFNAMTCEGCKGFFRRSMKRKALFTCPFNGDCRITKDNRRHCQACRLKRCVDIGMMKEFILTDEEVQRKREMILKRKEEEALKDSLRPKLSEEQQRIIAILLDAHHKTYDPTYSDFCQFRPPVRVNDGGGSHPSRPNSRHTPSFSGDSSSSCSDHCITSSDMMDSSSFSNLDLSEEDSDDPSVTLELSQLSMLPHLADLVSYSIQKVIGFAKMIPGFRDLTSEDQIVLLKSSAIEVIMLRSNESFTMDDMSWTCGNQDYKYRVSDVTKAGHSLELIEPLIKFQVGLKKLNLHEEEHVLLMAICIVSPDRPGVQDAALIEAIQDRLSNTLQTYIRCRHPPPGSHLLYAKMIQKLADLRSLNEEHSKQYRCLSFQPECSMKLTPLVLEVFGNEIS
T2 sequence (looked up) 2: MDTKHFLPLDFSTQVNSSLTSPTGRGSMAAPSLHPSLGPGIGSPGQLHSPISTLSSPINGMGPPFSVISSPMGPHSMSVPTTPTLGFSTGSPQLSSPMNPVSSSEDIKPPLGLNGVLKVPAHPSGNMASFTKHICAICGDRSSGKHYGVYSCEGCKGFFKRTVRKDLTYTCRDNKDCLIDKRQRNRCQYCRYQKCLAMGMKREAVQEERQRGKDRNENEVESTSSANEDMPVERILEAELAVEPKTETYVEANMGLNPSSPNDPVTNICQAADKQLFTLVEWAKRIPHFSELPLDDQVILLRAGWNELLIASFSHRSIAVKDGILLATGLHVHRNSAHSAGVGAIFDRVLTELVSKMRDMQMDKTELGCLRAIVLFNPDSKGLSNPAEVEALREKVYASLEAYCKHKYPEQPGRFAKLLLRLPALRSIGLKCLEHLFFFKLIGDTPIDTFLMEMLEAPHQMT

Experiment [4] concerns the target T1, Full length WT Flag-hRXRα (human …). This is another data set of the same source.

Take B1: the binding result in experiment [1] is “binds”.

B2: His-hVDR LBD (residues 118-425, Δ[165-215]) (domain or fragment, human, UniProt P11473 118-425, looked up)
chain: DSLRPKLSEEQQRIIAILLDAHHKTYDPTYSDFCQFRPPVRVNDGGGSVTLELSQLSMLPHLADLVSYSIQKVIGFAKMIPGFRDLTSEDQIVLLKSSAIEVIMLRSNESFTMDDMSWTCGNQDYKYRVSDVTKAGHSLELIEPLIKFQVGLKKLNLHEEEHVLLMAICIVSPDRPGVQDAALIEAIQDRLSNTLQTYIRCRHPPPGSHLLYAKMIQKLADLRSLNEEHSKQYRCLSFQPECSMKLTPLVLEVFGNE
Consider B2, for which the binding result in experiment [1] is recorded as “binds”.

B3: His-hSRC1-RID (627-786) variant 1, receptor interacting domain of human steroid receptor coactivator 1 (domain or fragment, UniProt Q15788-1 627-786, looked up)
chain: SQTSHKLVQLLTTTAEQQLRHADIDTSCKDVLSCTGTSNSASANSSGGSCPSSHSSLTERHKILHRLLQEGSPSDITTLSVEPDKKDSASTSVSVTGQVQGNSSIKLELDASKKKESKDHQLLRYLLDKDEKDLRSTPNLSLDDVKVKVEKKEQMDPCNT
Turning to B3, the binding result in experiment [2], in experiment [3] and in experiment [4] was “binds” throughout.
